From article PMC2908543, “Uropathogenic Escherichia coli Modulates Immune Responses and Its Curli Fimbriae Interact with the Antimicrobial Peptide LL-37” (PLoS Pathogens, 2010)

Tests used:
[1] = molecular target: recombinant CsgA-His6 (E. coli) (UniProt P28307); assay: thioflavin T fluorescence quantified by confocal microscopy; monomeric CsgA with equimolar LL-37, sLL-37 or VIP and 20 µM ThT, over night at 37°C, washed; fluorescence relative to CsgA alone
[2] = molecular target: recombinant CsgA-His6 (E. coli) (UniProt P28307)

## human antimicrobial peptide LL-37
[1]
  ThT fluorescence of CsgA with the peptide at 1:1, relative to CsgA alone (1 arbitrary unit) (arbitrary units): 0.05
[2]
  curli-mediated biofilm formation of E. coli in microtiter plates (crystal violet), reduction by 2.5 µM LL-37; the pair blocked is CsgA with CsgA (polymerization): > 80%
